From US20180222961A1 (IMMATICS BIOTECHNOLOGIES, published 2018)

Molecular target: T1, HLA-A*24:02 (human)
T1 construct: also called peptide-receptive MHC molecules
Assay: UV-exchange b2m ELISA; exchange-yield grade
How it was run: (§1)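 Peptide–MHC complexes formed by UV-ligand exchange, in which a UV-cleavable peptide is replaced by the test peptide. Exchange yield measured by ELISA detecting β2m of stabilised complexes captured on streptavidin, against refolded HLA-A*02:01/MLA-001 monomer standards (15-500 ng/ml); samples diluted 100-fold.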

Question: SYFRGFTLI was tested. Which peptide exchange yield did it give?
Answer: Its peptide exchange yield is over 75%.

Question: How did the peptide exchange yield turn out when KYVAELSLL was run?
Answer: Its peptide exchange yield is over 75%.

Question: How did the peptide exchange yield turn out when RYGPVFTV was run?
Answer: The peptide exchange yield was over 75%.

Question: How did the peptide exchange yield turn out when RYLAVVHAVF was run?
Answer: Its peptide exchange yield is over 75%.

Question: SYNEHWNYL was tested. Which peptide exchange yield did it give?
Answer: Its peptide exchange yield is over 75%.

Question: LYQPRASEM was tested. Which peptide exchange yield did it give?
Answer: The peptide exchange yield was 50 to 75%.

Question: For VYNHTTRPL, which peptide exchange yield is on record?
Answer: The peptide exchange yield was over 75%.

Question: For VFVSFSSLF, which peptide exchange yield is on record?
Answer: The peptide exchange yield was 50 to 75%.

Question: With TAYMVSVAAF as the binder, how does the peptide exchange yield read?
Answer: The peptide exchange yield was 50 to 75%.

Question: With VYTPTLGTL as the binder, how does the peptide exchange yield read?
Answer: Its peptide exchange yield is over 75%.

Question: How did the peptide exchange yield turn out when KYPVHIYRL was run?
Answer: The peptide exchange yield was over 75%.

Question: KYVKVFHQF was tested. Which peptide exchange yield did it give?
Answer: The peptide exchange yield was over 75%.

Question: For SFAPRSAVF, which peptide exchange yield is on record?
Answer: Its peptide exchange yield is over 75%.

Molecular target: T2, HLA-A*01:01 (human)
T2 construct: also called peptide-receptive MHC molecules
Assay: UV-exchange b2m ELISA; exchange-yield grade
How it was run: as §1

Question: VMEQSAGIMY was tested. Which peptide exchange yield did it give?
Answer: Its peptide exchange yield is 20 to 50%.

Question: For SPVTSVHGGTY, which peptide exchange yield is on record?
Answer: Its peptide exchange yield is 20 to 50%.

Question: For FVDNQYWRY, which peptide exchange yield is on record?
Answer: The peptide exchange yield was 50 to 75%.

Question: Which peptide exchange yield does the source give for LLDEGAMLLY here?
Answer: The peptide exchange yield was over 75%.

Question: NVTMKVVSVLY was tested. Which peptide exchange yield did it give?
Answer: The peptide exchange yield was 50 to 75%.

Question: For QLDSNRLTY, which peptide exchange yield is on record?
Answer: Its peptide exchange yield is 50 to 75%.

Question: For RWEKTDLTY, which peptide exchange yield is on record?
Answer: Its peptide exchange yield is 20 to 50%.

Question: How did the peptide exchange yield turn out when VLLDEGAMLLY was run?
Answer: The peptide exchange yield was 20 to 50%.

Question: With ETIRSVGYY as the binder, how does the peptide exchange yield read?
Answer: The peptide exchange yield was 50 to 75%.

Question: TVTGAEQIQY was tested. Which peptide exchange yield did it give?
Answer: Its peptide exchange yield is 20 to 50%.

Question: How did the peptide exchange yield turn out when DMDEEIEAEY was run?
Answer: Its peptide exchange yield is 20 to 50%.
